Test results: the supplement of paper PMC9170038

Tested on: MS2 coat protein
Assay: apparent KD of MS2 coat protein; designed switch direction (-1 OFF switch, 1 ON switch): -1; higher = weaker reporter binding
How it was run: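 The reported apparent KD is a per-design median over clusters, from curve fits of normalised cluster fluorescence. Protein titrations used SNAP-549-labelled MS2 coat protein, doubled from 0.7 or 1.5 nM to 3 µM, in Tris-HCl pH 7.5 buffer with KCl, MgCl2, BSA, DTT, tRNA and Tween-20, with no input, 200 uM small-molecule ligand, or an oligonucleotide input. The RNA switches were transcribed on Illumina chips by stalled E. coli RNA polymerase.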

[1] = Eterna round: R95, input ligand: FMN 200 uM
[2] = Eterna round: R95, input ligand: microRNA oligo, concentration not stated
[3] = Eterna round: R95, input ligand: none
[4] = input ligand: microRNA oligo, concentration not stated

| Sequence | apparent KD of MS2 coat protein [1] [nM] | apparent KD of MS2 coat protein [2] [nM] | apparent KD of MS2 coat protein [3] [nM] | apparent KD of MS2 coat protein (input ligand: FMN 200 uM) [nM] | apparent KD of MS2 coat protein [4] [nM] | apparent KD of MS2 coat protein (input ligand: none) [nM] |
| --- | --- | --- | --- | --- | --- | --- |
| UGGUAACAUGAGGAUCACCCAUGUCAGGAUAUCAGUAAGAAUAGAUUAGAUUAGAAUAUGAGAAGGGACUAUAG [Excluse me! 3 - Jieux - Exclusion 1] (puzzle: Exclusion 1) | 38.5 | 38.9 | 47.8 |  |  |  |
| GCAGCAUAGAUAACAUACUGUUACAUGAGGAUCACCCAUGUAUAGGAUAUGGUCUGGAUUACAGGCCAGAAGGGUACAAGCUGC [Eli exng3 - 022] (Eterna round: R96, puzzle: Exclusion NG 3) |  |  |  | 12.6 | 9.84 | 14.4 |
| AGCUAGAUAGGAUAUGCCCGGGAUAACAUGAGGAUCACCCAUGUGACCGAUUCAUGUCCUGCAGAAGGGUUUGGGA [Mod of ViennaUCT 7 - Jieux - Exclusion 5] (Eterna round: R97, puzzle: Exclusion 5) |  |  |  | 15.1 |  | 12.7 |
| GGUACUAUCACCUGAGUGGUAGUGCUAUAAGCUUGUGAUACAUGAGGAUCACCCAUGUCCUCAUUUGCUCGUCUUAU [JL-sv3-2.29 JL mod] (puzzle: Sensor v3, turn-off variant 2) | 602 | 610 | 824 |  |  |  |
| GUAAAGUGAGGAUAUGGUAAAUUAAUUAUUUAUUAAUUAAUCCAGAAGGCACAUGAGGAUCACCCAUGUAAAUG [Mat - Exclusion 4 - D94] (puzzle: Exclusion 4) |  | 26.5 |  |  |  |  |
| UGUUGUUACGUAGGAUAUUGCCAACAGGCAGUAGGAUAUGCGAAAGCAGAAGGACCGCCAACAGGCGAGAAGGACGGGUUAACA [pwkr exNG2 2xF7 2xFMN.11] (Eterna round: R96, puzzle: Exclusion NG 2) |  |  |  | 286 | 31.5 | 389 |
| GGGCGGCGGACCGUGGCUUUUUGCUCGUCUUAUGCUUCGACAUGAGGAUCACCCAUGUGGUGGUGGUCCGUUGUGGG [Grok-var2-13 mod JAL] (puzzle: Sensor v3, turn-off variant 2) | 18.4 | 15.5 | 20.8 |  |  |  |
| GUAGAGUAAGGAUAUACAGAAUAGGAUAGAAUGGUUAGAAUGUAGAAGGUACAUGAGGAUCACCCAUGUAAUGU [Excluse me!!!! 8 - Jieux - Exclusion 4] (puzzle: Exclusion 4) |  | 19.7 |  |  |  |  |
| GCCUCACAUGAGGAUCACCCAUGUGAGGAUAUUGAGUUACCAGGCGAACAAGCGACUACGAGAAGGCACGUGGA [Eternabot (L2) Solution 85] (Eterna round: R97, puzzle: Exclusion 1) |  |  |  | 12 |  | 13.9 |
| GAACCGCGAGGAUAUACAGUCGAGUCUAUUACGUGUCUCGGACUUGAGGAUCACCCAAGUAGAAGGCGUCUCAG [salish99_ex2_r4_635] (Eterna round: R97, puzzle: Exclusion 2) |  |  |  | 54.5 |  | 56.2 |
| CCAUGUGAGGAGGAUAUCGCCGCGCGAACCGAAUGAGAAGGUCUUACAUGAGGAUCACCCAUGUAAAGUACAUC [Eternabot (L1) Solution 1] (Eterna round: R97, puzzle: Exclusion 6) |  |  |  | 20.9 |  | 13.1 |
| GAGGAACAUGAGGAUCACCCAUGUGAGGAUAUGCAUAGUGAGGUAGUAGAAGUUGAAUGCAGAAGGUACACUGA [JR_Exclu1_Sub077] (puzzle: Exclusion 1) |  | 39 |  |  |  |  |
| ACAUGAGGAUCACCCAUGUGAAAAGAAUGGCUGACACAGAGUUAGGAUAUGCGUGCAUAUCUAACGCAGAAGGGACAUGACUGG [Deportation 82 - Jieux - Exclusion NG 3] (Eterna round: R96, puzzle: Exclusion NG 3) |  |  |  | 33.7 | 33.9 | 30.2 |
| GAUUGACAUGAGGAUCACCCAUGUGAGGAUAUCGGCUGGACCGUGUUGGCUUGCCUCUCGAGAAGGCGCAUAGG [Exclusion 1 V52] (puzzle: Exclusion 1) | 38.8 | 35 | 43.8 |  |  |  |
| CAUGAUUGGCGAGGAUAUUGAUCUAGUUGGCGACGAGAAGGCGCCUGUCACAUGAGGAUCACCCAUGUGAGUCUGGUGGAUGAG [Ex NG1 #87] (Eterna round: R96, puzzle: Exclusion NG 1) |  |  |  | 21.4 | 16.5 | 20.4 |
| AGUGCGUAUGUGAGGAUAUGCUGGUCCUUGGAUCAGCAGAAGGCACAUGAGGAUCACCCAUGUGGUGUCGUACC [salish99_Bmod_Ex4_003] (puzzle: Brourd's mod of Exclusion 4) |  | 180 |  |  |  |  |
| AGGUUGGGCGCAUCUUGCCACAUGAGGAUCACCCAUGUUGUACCAUUAGAAGAGAACAAGCUCUUUGCUCGUCUUAU [Sensor 1 S2] (Eterna round: R97, puzzle: Sensor, turn-off variant 1) |  |  |  | 32 |  | 39.5 |
| AUGACAGGACAUGAGGAUCACCCAUGUACACGACCAAUGACCGAGGAUAUCGAUUGCAUGCAGGUCGAGAAGGCGGAGUAUCCA [Eternabot solution 3] (Eterna round: R96, puzzle: Exclusion NG 3) |  |  |  | 18.2 | 30.9 | 28.1 |
| GGUUGGCGAGGAUAUACAUGAGGAUCACCCAUGUGAGAGAAAAAAGUGAGAACGAAAAGUAGAAGGCGCUGACG [salish99-ex3-25] (Eterna round: R96, puzzle: Exclusion 3) |  |  |  | 315 | 67.5 | 98.8 |
| ACAAGCUUUUGGAUUUUCAACAUGAGGAUCACCCAUGUUCGUCUUAUGCGAGUGCGAGUGCGGUGUACUCGUAUUAG [JL TOV1 3.86 sellena mod] (Eterna round: R97, puzzle: Sensor, turn-off variant 1) |  |  |  | 25.3 |  | 24.4 |
| ACUCGACAUGAGGAUCACCCAUGUGAGGAUAUGGCCUGUUUGGCGUGAGCUGGCUCUGUCAGAAGGCGCGUGGG [salish99_ex1_r4_045] (Eterna round: R97, puzzle: Exclusion 1) |  |  |  | 138 |  | 75.5 |
| AGUAACUAUCACGAAAGUGAUAGUUACAAAACAGGUGAAACAUGAGGAUCACCCAUGUCCUCAUUUGCUCGUCUUAU [Sensor 3 - 3] (puzzle: Sensor v3, turn-off variant 2) | 793 | 384 | 857 |  |  |  |
| ACUUAUUGAGGAUAUACAUUAAAUUACAUGAGGAUCACCCAUGUUCUUCAAUGUAUAUAUGUAGAAGGCAAAAGAG [Mat - Exclusion 5 - JL Mod - D22] (Eterna round: R97, puzzle: Exclusion 5) |  |  |  | 26.5 |  | 14.4 |
| UUAUUAUAUGUAGGAUAUGCAUAUUAUUAUUAUGCAGAAGGACAUGAGGAUCACCCAUGUAUAUUGUUAUUAUAUAUUAUAUAU [Title] (Eterna round: R96, puzzle: Exclusion NG 1) |  |  |  |  | 21.7 |  |
| AUUACAUGAGGAUAUACAUGAGGAUCACCCAUGUAAAUAGCAGUGGUAGUCAACUCGAGUAGAAGGCGUAACGU [Eternabot (L1) Solution 51] (Eterna round: R97, puzzle: Exclusion 3) |  |  |  | 67.8 |  | 58.7 |
